Article doi:10.1101/2022.05.13.491786
Each block holds one substance with its values, some of them ahead of it.

Key:
[1] = target: inactive human 80S ribosome (human (endogenous in MCF7)) (UniProt P18124); assay: cryo-EM structure
[2] = target: large 60S ribosomal subunit (human (endogenous in MCF7)) (UniProt P30050); assay: co-sedimentation
[3] = target: large 60S ribosomal subunit (human (endogenous in MCF7)) (UniProt P30050); assay: cryo-EM structure

Substance: IFRD2 (from UniProt Q12894 1-442) (natural protein)
percent of 80S ribosomes with IFRD2 (arsenite-treated cells) [1]: 13%
percent of 80S ribosomes with IFRD2 (untreated cells) [1]: 16.9%

Substance: LYAR (from UniProt Q9NX58 1-379) (natural protein)
percent of 80S ribosomes with LYAR (arsenite-treated cells) [1]: 15.5%
percent of 80S ribosomes with LYAR (untreated cells) [1]: 13.2%

stoichiometry N (eIF6 : large subunit proteins) [2]: 1
percent of 60S subunits with eIF6 (untreated cells) [3]: 30%
Substance: eIF6 (from UniProt P56537 1-245) (natural protein)
